Test system: MS2 coat protein
Assay: apparent KD of MS2 coat protein; designed switch direction (-1 OFF switch, 1 ON switch): -1; higher = weaker reporter binding
Procedure, shortened: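 The apparent KD reported per design is the median over clusters of curve fits to normalised cluster fluorescence. The RNA switches were transcribed on Illumina chips by stalled E. coli RNA polymerase. SNAP-549-labelled MS2 coat protein was titrated from 0.7 or 1.5 nM, doubling up to 3 µM, in Tris-HCl pH 7.5 buffer containing KCl, MgCl2, BSA, DTT, tRNA and Tween-20, with no input, 200 uM small-molecule ligand, or an oligonucleotide input.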

[1] = Eterna round: R95, input ligand: microRNA oligo, concentration not stated
[2] = Eterna round: R95, input ligand: FMN 200 uM
[3] = Eterna round: R95, input ligand: none
[4] = input ligand: microRNA oligo, concentration not stated

Sequence | apparent KD of MS2 coat protein [1] [nM] | apparent KD of MS2 coat protein (input ligand: FMN 200 uM) [nM] | apparent KD of MS2 coat protein (input ligand: none) [nM] | other results
CUUUUGUGAGGAUAUCAGUAGUAAUACAAUAGUAUUACUACUGAGAAGGCACAUGAGGAUCACCCAUGUUUCUC [Ex4 344 Omei mod 3] (puzzle: Exclusion 4) | 39.8 | – | – | –
CUUUUGUGAGGAUAUCAUUAGUAAAUAAAUAAAAUUACUACUGAGAAGGCACAUGAGGAUCACCCAUGUUCCUC [salish99_ex3_r3_072] (puzzle: Exclusion 4) | 31.8 | – | – | –
CUUUUGUGAGGAUAUUAGUAGUAAAUGAAUAAAAUUAUUACUGAGAAGGUACAUGAGGAUCACCCAUGUUCCUU [Mat - Exclusion 4 - Eli Mod - D20] (Eterna round: R97, puzzle: Exclusion 4) | – | 16.3 | 14.3 | –
CUUUUGUGAGGAUAUUAGUUGUAAAUAAAUAAAAUUACUACUGAGAAGGCACAUGAGGAUCACCCAUGUUCCUC [salish99_ex4_r3_049] (puzzle: Exclusion 4) | 33.2 | – | – | –
CUUUUGUGAGGAUAUUCGUAGUAAAUGAAUAAAAUUAUUACGGAGAAGGCACAUGAGGAUCACCCAUGUUCCUU [Mat - Exclusion 4 - Eli Mod - D32] (Eterna round: R97, puzzle: Exclusion 4) | – | 53.2 | 16.7 | –
GAAAACGAAGAGGAUAUAUGAUAUCAAAGCUUCAUAGAAGGCUUCACAUGAGGAUCACCCAUGUGAUCUUCAAA [jl-ex6-4.07 ViennaUCT mod] (Eterna round: R97, puzzle: Exclusion 6) | – | 262 | 37.9 | –
GAAAAGGUAGGAUAUACGAAAAAAGAGGGUAGAAAAAAAACACAUGAGGAUCACCCAUGUAGAAGGACCAAAAG [salish99_ex2_r3_025] (puzzle: Exclusion 2) | 32.1 | – | – | apparent KD of MS2 coat protein [2]: 60.2 nM; apparent KD of MS2 coat protein [3]: 24.9 nM
GAAAAGUAAGGAUAUGUCCACAGUGAGGAAACUCACUGUGGACAGAAGGUACAUGAGGAUCACCCAUGUUUCUC [ExDelusion 3 - Jieux - Exclusion 4] (Eterna round: R97, puzzle: Exclusion 4) | – | 213 | 39 | –
GAACCAAAAGGAUAUGGCGUAACAAACAUGAGGAUCACCCAUGUCCUCGAUGAAUAUCCGCCAGAAGGUUUGUCUC [Eternabot (L2) Solution 10] (Eterna round: R97, puzzle: Exclusion 5) | – | 1000 | 1760 | –
GAAGGUGAGCAGGAUAUCCGCGCACGAAUAUAAGGAGAAGGGCUUACAUGAGGAUCACCCAUGUAAGGUGGUAG [Rexequar] (puzzle: Exclusion 6) | 11.9 | – | – | apparent KD of MS2 coat protein [2]: 15.8 nM; apparent KD of MS2 coat protein [3]: 11.5 nM
GAAUAGAGAGGAUAUGCGAAGUAGGUAGUAAGAUAUAUCUGACAUGAGGAUCACCCAUGUAGAAGGCUCAGAUC [EX2 #4] (Eterna round: R97, puzzle: Exclusion 2) | – | 34.8 | 35.2 | –
GAAUAGGCAGGAUAUACAUGAGGAUCACCCAUGUGCUUGCGAUAGGCACGUGAACAACGUAGAAGGGCCUUAAC [ChP 13.04.2015 #12] (Eterna round: R96, puzzle: Exclusion 3) | – | 184 | 34.9 | apparent KD of MS2 coat protein [4]: 30.8 nM
GAAUAGGCAGGAUAUACAUGAGGAUCACCCAUGUGCUUGCGAUAGGCACGUGAACAACGUAGAAGGGCCUUAAC [ChP 13.04.2015 #12] (puzzle: Exclusion 3) | 28.3 | – | – | –
GAAUAGGGAGGAUAUCCAAUAUAUGACAUGAGGAUCACCCAUGUUUCCACUCGUACCUCCGGAGAAGGCCCAUAAA [Ex5 #4] (Eterna round: R97, puzzle: Exclusion 5) | – | 22.8 | 19.9 | –
GACCAGGAAGGAUAUACAUACGGUUCGUGCCUUGGGCUGCGACAUGAGGAUCACCCAUGUAGAAGGUCCAGGUC [EX2 B.18] (Eterna round: R97, puzzle: Exclusion 2) | – | 47.1 | 18.6 | –
GACCGUGCUUAGGAUAUACGUUAGGAGUUGACCGUAGAAGGGAGUACAUGAGGAUCACCCAUGUCACCUACAGC [Eternabot (L2) Solution 75] (Eterna round: R97, puzzle: Exclusion 6) | – | 15.9 | 16.5 | –
GACUAGGGAGGAUAUAUUUGCAGUGUACCUCGGGUGAUCGCACUUGAGGAUCACCCAAGUAGAAGGCUCGAGGG [EX2 #26] (Eterna round: R97, puzzle: Exclusion 2) | – | 41.9 | 46.5 | –

Sequence | apparent KD of MS2 coat protein [1] [nM] | apparent KD of MS2 coat protein (input ligand: FMN 200 uM) [nM] | apparent KD of MS2 coat protein (input ligand: none) [nM] | other results
GACUCGCACUGAGGAUAUCGAAACGAUACGUCGCGAGAAGGCAGAGCGAACAUGAGGAUCACCCAUGUGGGUUCGCCUGAUGUA [Geedinsoma] (Eterna round: R96, puzzle: Exclusion NG 1) | – | 23.2 | 16.7 | apparent KD of MS2 coat protein [4]: 12.9 nM
GACUGCAGAGGAUAUACAUGAGGAUCACCCAUGUGAGAUGCCUGACAGGUGUUGCUGAGUAGAAGGCUGCACUG [Onorveer] (puzzle: Exclusion 3) | 13.2 | – | – | –
GACUGGACAGGAUAUGUUCUUGAGCACUUGAGGAUCACCCAAGUCAUCAAGAACUCAGGCACAGAAGGGUUUAUGC [salish99_ex5_r4_011] (Eterna round: R97, puzzle: Exclusion 5) | – | 19.5 | 13.7 | –
GAGAAACAUGAGGAUCACCCAUGUAAGGAUAUGCUGAAAAUCACGGAUUAAUCGUGCAGCAGAAGGUACAAAGG [Mat - Mod of my Eli Mod D42] (puzzle: Exclusion 1) | 110 | – | – | apparent KD of MS2 coat protein [2]: 142 nM; apparent KD of MS2 coat protein [3]: 143 nM
GAGAACUGAGGAUAUACAUGAGGAUCACCCAUGUGAAGAAGAAAGUAGUGAUGGUUGGGUAGAAGGCAGAGAGA [JR_Ex3_Sub065] (Eterna round: R97, puzzle: Exclusion 3) | – | 52.4 | 46.3 | –
GAGAAUUCAUAGGAUAUCGUAUGGAUAAUUUAACGAGAAGGAUGAACAUGAGGAUCACCCAUGUGGUAUCAUGG [salish99_ex6_r3_002] (puzzle: Exclusion 6) | 87.5 | – | – | apparent KD of MS2 coat protein [2]: 83.5 nM; apparent KD of MS2 coat protein [3]: 95 nM
GAGACACAUGAGGAUCACCCAUGUGAGGAUAUCCGAAGGACCAAAUUAAGAAUUAAAGGGAGAAGGCACAUAAA [Exclusion 1 V5] (puzzle: Exclusion 1) | 27.2 | – | – | –
GAGAGGUCAGGAUAUACGGAGAGAGAGAGUAGGUGAGGGUAACAUGAGGAUCACCCAUGUAGAAGGGACUAAGG [JR_Exclu2_Sub075] (puzzle: Exclusion 2) | 48.4 | – | – | apparent KD of MS2 coat protein [2]: 51.7 nM; apparent KD of MS2 coat protein [3]: 46.3 nM
GAGCAGCGAGGAUAUACCUGGACCUGGUCCCAGGCCGAUCAACUUGAGGAUCACCCAAGUAGAAGGCGUGGCUC [Ceortiti] (Eterna round: R97, puzzle: Exclusion 2) | – | 322 | 401 | –
GAGGCAUGCCGAGGUCCACACAUGAGGAUCACCCAUGUAAUGACAGGCUUUUUACUCGUUUUACCGCUAUCGCGUUC [Gedied] (puzzle: Sensor v3, turn-off variant 1) | 21.7 | – | – | apparent KD of MS2 coat protein [2]: 14.9 nM; apparent KD of MS2 coat protein [3]: 12.7 nM
GAGGUGUUAGGAUAUCGGAGAUGGAGACCGACGGGAUGAGCCGAGAAGGAACAUGAGGAUCACCCAUGUAGGUG [JR_Exclu4_Sub033] (puzzle: Exclusion 4) | 386 | – | – | –
GAGUACUCAGGAUAUGCAUGAGUAGUGAUGUAGAGAGUGUGACAUGAGGAUCACCCAUGUAGAAGGGAGGAAUG [Version #1] (Eterna round: R97, puzzle: Exclusion 2) | – | 338 | 105 | –
GAGUGACAUGAGGAUCACCCAUGUGAGGAUAUCGGACGGACCAAAUUAACAACACCCGCGAGAAGGCACAUCGG [Exclusion 1 V21] (puzzle: Exclusion 1) | 110 | – | – | –
GAGUGACAUGAGGAUCACCCAUGUGAGGAUAUCGGACGGACCAAAUUAACAACCGCCGCGAGAAGGCACAUCGG [Exclusion 1 V21] (puzzle: Exclusion 1) | 144 | – | – | apparent KD of MS2 coat protein [2]: 130 nM; apparent KD of MS2 coat protein [3]: 129 nM
GAGUUAACAUGAGGAAUAUACAUGAGGAUCACCCAUGUUAACAAAAUUUUUGCUCGUCUUAUAACAACAAUUAACUC [Alarm 3 - Jieux - Sensor, turn-off variant 1] (Eterna round: R97, puzzle: Sensor, turn-off variant 1) | – | 272 | 151 | –
GAGUUAGCGUGAGGAAUAUACAUGAGGAUCACCCAUGUUAGCAAAUAUAUUGCUCGUCUUAUAACAACAAUUAACUC [Alarm 9 - Jieux - Sensor, turn-off variant 1] (Eterna round: R97, puzzle: Sensor, turn-off variant 1) | – | 13.6 | 14.3 | –

From the supplement of paper PMC9170038
